From PMC8476643 (2021)

Target: SARS-CoV-2 receptor-binding domain (RBD) (SARS-CoV-2, UniProt P0DTC2)
Experiment: SPR

B1: 7D6 monoclonal antibody (antibody, V domains shown)
VH: EVQLQQSGAELVRPGASVKLSCTASGFNIKDTYIHWVKQRPEQGLEWIGRIDPGDGDTEYDPSFQGKATITADTSSNTAYLELSSLTSEDTAVYYCTRFYDYVDYGMDYWGQGTSVTVSS
VL: DIQMTQSPASLSASVGETVTITCRASGNIHNYLAWYQQKQGKSPQLLVYNAKTLADGVPSRFSGSGSGTQYSLKINSLQPEDFGSYYCQHFWSTPPWTFGGGTKLEVK
Kd: 3 pM
